Test results from PMC4084727.

Assays:
[1] = biological target: T1, GST-Freud-2 (GST-hF2) (Homo sapiens, UniProt Q5T0F9 1-858); assay: EMSA
T1 sequence: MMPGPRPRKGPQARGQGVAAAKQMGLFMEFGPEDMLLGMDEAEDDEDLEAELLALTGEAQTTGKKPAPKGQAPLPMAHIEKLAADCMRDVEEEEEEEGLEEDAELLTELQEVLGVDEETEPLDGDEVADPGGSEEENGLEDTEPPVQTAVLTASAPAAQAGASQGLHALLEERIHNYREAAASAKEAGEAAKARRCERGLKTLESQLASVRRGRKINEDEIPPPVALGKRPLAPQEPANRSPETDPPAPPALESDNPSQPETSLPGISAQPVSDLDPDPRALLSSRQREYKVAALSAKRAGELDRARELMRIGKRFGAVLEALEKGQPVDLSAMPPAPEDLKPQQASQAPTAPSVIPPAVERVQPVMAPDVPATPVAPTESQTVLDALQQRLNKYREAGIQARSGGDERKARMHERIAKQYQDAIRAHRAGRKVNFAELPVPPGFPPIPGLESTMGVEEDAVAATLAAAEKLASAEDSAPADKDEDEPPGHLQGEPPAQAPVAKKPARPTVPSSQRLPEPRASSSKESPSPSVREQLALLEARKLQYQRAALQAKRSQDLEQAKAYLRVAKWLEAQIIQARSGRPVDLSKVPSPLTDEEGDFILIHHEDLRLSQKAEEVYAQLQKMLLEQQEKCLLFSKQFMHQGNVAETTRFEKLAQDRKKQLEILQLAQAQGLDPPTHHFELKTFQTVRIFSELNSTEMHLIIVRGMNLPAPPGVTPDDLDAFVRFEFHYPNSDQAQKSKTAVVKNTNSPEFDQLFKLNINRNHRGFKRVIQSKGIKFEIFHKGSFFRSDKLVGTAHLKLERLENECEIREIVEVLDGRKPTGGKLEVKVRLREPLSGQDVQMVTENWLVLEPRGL

[2] = biological target: T1, GST-Freud-2 (GST-hF2); assay: competition
[3] = biological target: T1, GST-Freud-2 (GST-hF2); assay: competition; remark: listed apart in the source
[4] = biological target: T1, GST-Freud-2 (GST-hF2); assay: EMSA; remark: listed apart in the source
[5] = biological target: T1, GST-Freud-2 (GST-hF2); assay: competition; remark: listed apart in the source

B1: 5'-DRE (-1624/-1598) (dsDNA)
DNA 1: AGATGGCACTCTAAAACATTTGCCAGA
DNA 2: TCTGGCAAATGTTTTAGAGTGCCATCT
binding result [1]: binds

B2: 16-bp 5' (-1613/-1598) (dsDNA)
DNA 1: TAAAACATTTGCCAGA
DNA 2: TCTGGCAAATGTTTTA
binding result [2]: binds

B3: 12-bp 3' (-1578/-1566) (dsDNA)
DNA 1: CATTGCTTAGAA
DNA 2: TTCTAAGCAATG
binding result [3]: no binding

B4: 17-bp 5' (-1624/-1608) (dsDNA)
DNA 1: AGATGGCACTCTAAAAC
DNA 2: GTTTTAGAGTGCCATCT
binding result [2]: binds

B5: 3'-DRE (-1597/-1565) (dsDNA)
DNA 1: AGGTGGCGACATAAAACCTCATTGCTTAGAACT
DNA 2: AGTTCTAAGCAATGAGGTTTTATGTCGCCACCT
binding result [4]: binds

B6: 19-bp 3' (-1597/-1578) (dsDNA)
DNA 1: AGGTGGCGACATAAAACCT
DNA 2: AGGTTTTATGTCGCCACCT
binding result [5]: binds
